Test results from article PMC11430254, “Insights into Transient Dimerisation of Carnitine/Acylcarnitine Carrier (SLC25A20) from Sarkosyl/PAGE, Cross-Linking Reagents, and Comparative Modelling Analysis” (Biomolecules, 2024).

Assays:
[1] = target: the molecule itself; assay: cross-linking; purified CAC reconstituted in liposomes (0.5 µg protein), 0.5 mM Sulfo-MBS (spacer arm 9.9 Å), 30 min at room temperature, quenched with 10 mM DTE and 20 mM Tris-HCl pH 8.0; SDS-PAGE and immunoblot
[2] = target: the molecule itself; assay: native gel or EMSA; Sarkosyl/PAGE: 14% polyacrylamide, 0.05% w/v Sarkosyl in gel, samples and running buffer, 100 Volt, 4 °C; purified CAC in Triton X-100 or extracted from proteoliposomes with 0.05% Sarkosyl; silver nitrate staining; 59 kDa band excised and run on SDS-PAGE with immunoblot
[3] = target: the molecule itself; assay: cross-linking; recombinant CAC WT alone (100) or mixed with C-lessV (75/25, 50/50) reconstituted in liposomes, incubated with Sulfo-SMPB; SDS-PAGE and immunoblot

| Protein | stoichiometry N [1] | stoichiometry N [2] | stoichiometry N [3] |
| --- | --- | --- | --- |
| native carnitine/acylcarnitine carrier purified from isolated rat liver mitochondria (natural protein, UniProt P97521 1-301, looked up, mitochondrial carnitine/acylcarnitine carrier (CAC, SLC25A20), rat, native protein from liver mitochondria; single band of apparent molecular weight 32,500 Da on SDS gel; Integral membrane protein; also called CAC; SLC25A20; source: purified from rat liver mitoplasts (3% Triton X-100 extract, hydroxyapatite, celite with cardiolipin); used in Triton X-100 or reconstituted in liposomes) MAEEPKPISPLKNLLAGGFGGVCLVFVGHPLDTVKVRLQTQPPSLPGQPPMYSGTIDCFRKTLFREGITGLYRGMAAPIIGVTPMFAVCFFGFGLGKRLQQKSPEDELTYPQLFTAGMLSGVFTTGIMTPGERIKCLLQIQASSGKNKYSGTLDCAKKLYQEFGIRGFYKGTALTLMRDVPASGMYFMTYEWLKNLFTPQGKSVHDLSVPRVLVAGGFRGIFNWVVAIPPDVLKSRFQTAPPGKYPNGFRDVLRELIREEGVTSLYKGFNAVMIRAFPANAACFLGFEIPMKILNWIAPNL | 2 | ~2 |  |
| recombinant carnitine/acylcarnitine carrier wild type (natural protein, UniProt P97521 1-301, looked up, also called CAC WT; WT; source: overexpressed from cDNA cloned in pMW7, purified, reconstituted in liposomes) MAEEPKPISPLKNLLAGGFGGVCLVFVGHPLDTVKVRLQTQPPSLPGQPPMYSGTIDCFRKTLFREGITGLYRGMAAPIIGVTPMFAVCFFGFGLGKRLQQKSPEDELTYPQLFTAGMLSGVFTTGIMTPGERIKCLLQIQASSGKNKYSGTLDCAKKLYQEFGIRGFYKGTALTLMRDVPASGMYFMTYEWLKNLFTPQGKSVHDLSVPRVLVAGGFRGIFNWVVAIPPDVLKSRFQTAPPGKYPNGFRDVLRELIREEGVTSLYKGFNAVMIRAFPANAACFLGFEIPMKILNWIAPNL |  |  | 2 |
